Laboratory results from US20220242962A1 (APTEVO RESEARCH AND DEVELOPMENT, published 2022).
Blank lines part the entries; values can stand above or below the binder they belong to.

Experiments:
[1] = target: T1, Fc gamma receptor RIIIA V176 (human, UniProt P08637 17-208); experiment: SPR, Fc captured, receptor as analyte, relative to wild type Fc
T1 construct: soluble SPR analyte
Experimental: (§1) Fc mutations to be potentially integrated into an ADAPTIR™ bispecific construct were analyzed for binding to the common Fc receptors (human and cyno) and C1Q, which is a component of the complement activation system. SPR experiments were conducted at 25° C. in HBS-EP+ buffer on a Biacore T200 system.
(§2) For these experiments, all four flow cells of a CM5 sensor chip were immobilized with goat F(ab′)2 anti-human Fc (Jackson ImmunoResearch) to a response level of ˜4000 RU. Fc variants and wild type Fc were diluted to 100 nM in HBS-EP+ and captured on the surface of the chip for 120 seconds at a flow rate of 10 μL/min. Fcγ receptors (human and cyno, all purchased from R&D Systems) and complement (C1Q, purchased from Quidel Corporation and Complement Technology, Inc) were diluted in HBS-EP+ and then flowed as analytes at 30 μL/min for 120 seconds followed by a 120 seconds dissociation. Regeneration was achieved by flowing 10 mM glycine pH 1.7 at 30 μL/min for 30 seconds followed by a 60 seconds stabilization. Flow cell 1 was always left as a blank (no captured protein) for purposes of background signal subtraction. Blank-subtracted sensorgrams for each captured Fc variant were inspected for the presence of binding to any of the Fcγ receptor proteins or complement. There are polymorphisms in the Human Fc receptors IIA and RIIIA, so both sequences were tested for binding.

Fc gamma receptor RI = target: T2, Fc gamma receptor RI (human, UniProt P12314 16-288); experiment: as above
T2 construct: also called FcγRI
T2 sequence (P12314 16-288 limits assumed): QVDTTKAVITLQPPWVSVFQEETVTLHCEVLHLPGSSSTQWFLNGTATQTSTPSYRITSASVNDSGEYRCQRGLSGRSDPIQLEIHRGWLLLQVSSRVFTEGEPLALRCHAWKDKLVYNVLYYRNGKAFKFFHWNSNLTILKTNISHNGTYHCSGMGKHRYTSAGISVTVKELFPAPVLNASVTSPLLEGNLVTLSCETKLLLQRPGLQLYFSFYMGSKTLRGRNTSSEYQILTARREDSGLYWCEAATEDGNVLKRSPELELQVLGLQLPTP
Experimental: as §1, §2

Full-length Cyno OX40 = target: T3, Full-length Cyno OX40 (cynomolgus monkey, UniProt P43489 29-277 (human entry)); experiment: flow cytometry on CHOK1SV cells transfected with cynomolgus OX40, goat anti-human Fc secondary antibody, MFI (Mean)
T3 construct: on CHO-K1SV cells; also called OXF004; cynomolgus OX40
T3 chain: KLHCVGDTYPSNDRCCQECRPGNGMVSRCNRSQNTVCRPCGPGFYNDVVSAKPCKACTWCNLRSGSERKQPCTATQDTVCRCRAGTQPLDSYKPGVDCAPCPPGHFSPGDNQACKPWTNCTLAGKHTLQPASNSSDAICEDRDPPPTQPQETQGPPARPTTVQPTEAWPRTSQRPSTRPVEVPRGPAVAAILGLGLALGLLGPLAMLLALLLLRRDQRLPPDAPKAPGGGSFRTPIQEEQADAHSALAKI
Experimental: Serial dilutions of ADAPTIR™ constructs were incubated with cells transfected with human or cynomolgus ECD and subsequently labelled with a fluorescently-conjugated goat-α-human Fc secondary antibody. […] (See Example 16.)

Human 4-1BB ECD-AFH = target: T4, Human 4-1BB ECD-AFH (human); experiment: SPR (T200), construct captured, monomeric ECD as analyte
T4 construct: entry includes the tags; also called FOB003; HUMAN CD137 ECD-AVI-FLAG-HIS
T4 sequence (chain, as listed by the source limits assumed): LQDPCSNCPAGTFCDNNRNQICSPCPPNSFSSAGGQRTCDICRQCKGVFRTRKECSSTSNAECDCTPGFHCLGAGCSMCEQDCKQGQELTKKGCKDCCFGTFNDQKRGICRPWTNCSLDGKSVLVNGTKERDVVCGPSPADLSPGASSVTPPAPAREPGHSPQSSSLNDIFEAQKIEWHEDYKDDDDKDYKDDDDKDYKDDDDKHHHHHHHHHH

T1 sequence (P08637 17-208 F176V): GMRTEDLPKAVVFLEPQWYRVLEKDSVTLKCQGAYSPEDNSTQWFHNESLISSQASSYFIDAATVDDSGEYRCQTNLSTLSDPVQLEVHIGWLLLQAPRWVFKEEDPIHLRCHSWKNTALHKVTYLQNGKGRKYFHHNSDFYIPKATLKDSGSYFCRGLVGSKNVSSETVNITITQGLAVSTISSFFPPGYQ

binding result [1]: binds
binding result (Fc gamma receptor RI): binds
B1: TSC 1005 (other)
chain: EPKSSDKTHTCPPCPAPPVAAPSVFLFPPKPKDTLMISRTPEVTCVVVDVSHEDPEVKFNWYVDGVEVHNAKTKPREEQYNSTYRVVSVLTVLHQDWLNGKEYKCAVSNKALPAPIEKTISKAKGQPREPQVYTLPPSRDELTKNQVSLTCLVKGFYPSDIAVEWESNGQPENNYKTTPPVLDSDGSFFLYSKLTVDKSRWQQGNVFSCSVMHEALHNHYTQKSLSLSPG
notes: IgG1 Fc with E233P, L234V, L235A, deletion of G236, G237A, K322A (EU); also called PVAdel TSC01005

EC50 (read off the curve) (Full-length Cyno OX40): ~2 nM
Kd (Human 4-1BB ECD-AFH): 14 nM
koff (Human 4-1BB ECD-AFH): 0.0044 s⁻¹
kon (Human 4-1BB ECD-AFH): 300000 M⁻¹ s⁻¹
B2: FXX01066 (bispecific antibody)
chain: EVQLVQSGAEVKKPGASVKVSCKASGYTFTSYWMNWVRQAPGQGLEWMGNIYPSGGSTNYAQKFQGRVTMTVDTSTSTVYMELSSLRSEDTAVYYCASFSDGYYAYAMDYWGQGTLVTVSSGGGGSGGGGSGGGGSGGGGSEIVMTQSPATLSLSPGERATLSCRASQSVSSYLNWYQQKPGQAPRLLIYYASRRHTGIPARFSGSGSGTDFTLTISSLQPEDFAVYYCQQGYNLPYTFGQGTKVEIKEPKSSDKTHTCPPCPAPPAAAPSVFLFPPKPKDTLMISRTPEVTCVVVDVSHEDPEVKFNWYVDGVEVHNAKTKPREEQYNSTYRVVSVLTVLHQDWLNGKEYKCAVSNKALPAPIEKTISKAKGQPREPQVYTLPPSRDELTKNQVSLTCLVKGFYPSDIAVEWESNGQPENNYKTTPPVLDSDGSFFLYSKLTVDKSRWQQGNVFSCSVMHEALHNHYTQKSLSLSPGGGGSPSSYVLTQPPSVSVAPGQTARITCGGNNIGSKSVNWFQQKPGQAPVLVVYDDSGRPSGIPERFSGSTSGNTATLTISRVEAGDEADYYCQVWDSSSDHVVFGGGTKLTVLGGGGSGGGGSGGGGSGGGGSQVQLVESGGGVVQPGRSLRLSCAASGFTLSYYGMHWVRQAPGKGLEWVAAISHDGSDKYYADSVKGRFTISRDNSKNTLYLQMNSLRAEDTAVYYCSNDQFDPWGQGTLVTVSSR
notes: ADAPTIR scFv-Fc-scFv, anti-4-1BB (VH-VL) N-terminal, anti-OX40 C-terminal, PAA (del) Fc; also called FX01066
